Experimental data from patent US12636342B2, “TARS derived from Akkermansia muciniphila or fragment thereof, and use thereof” (KOREA RESEARCH INSTITUTE OF BIOSCIENCE AND BIOTECHNOLOGY, priority 2020, dated 2026).

Key:
[1] = test system: peritoneal macrophages from TLR2-KO mice; test: M2 macrophage polarization in TLR2-KO mice under non-inflammatory conditions; assay type: in vivo, mouse; conditions: 24 h
Experimental: (A and B) AmTARS interacts directly with TLR2. Pull-down assay using lysates of HEK 293T cells transfected with Strep-AmTARS and TLR2-FLAG (A). The proteins precipitated by an anti-Strep antibody were analyzed by western blotting. In vitro interaction assay using purified TLR2-FLAG and His-tagged AmTARS proteins (B). Purified TLR2-FLAG was mixed with purified His-tagged AmTARS protein. His-tagged protein was precipitated by Ni-NTA, eluted, and analyzed by SDS-PAGE. (C) TLR2-dependent anti-inflammatory function of AmTARS in BMDMs (n=6 per group). (D) The unique regions within AmTARS are essential for anti-inflammatory function in a TLR2-dependent manner (n=8 per wild-type group and n=6 per TLR2 KO group). BMDMs from WT or TLR2-KO mice were treated with the indicated proteins (C and D). (E-I) TLR2-dependent function of AmTARS in vivo. WT or TLR2-KO mice with DSS-induced colitis were injected with either PBS or AmTARS. Daily changes in disease activity scores (E). Intestinal epithelial damage, as analyzed by H&E staining (F), and damage scores (G) (n=3 per group). […] After 24 h, PECs were isolated, and the percentage of M2 macrophages (CD206+CD11b+F4/80+) was measured by flow cytometry. […] P-values were calculated by an unpaired two-tailed Student's t-test.

[2] = target: T1, Toll-like receptor 2 (TLR2) (Homo sapiens, UniProt O60603); test: Pull-down / in vitro interaction assay with TLR2; assay type: binding
T1 construct: 13; TLR2; 17; pIRES-FLAG; FLAG; Mammal; FLAG (C); expressed in transfected cells; host or cells: HEK 293T (human)
T1 sequence (O60603 21-784): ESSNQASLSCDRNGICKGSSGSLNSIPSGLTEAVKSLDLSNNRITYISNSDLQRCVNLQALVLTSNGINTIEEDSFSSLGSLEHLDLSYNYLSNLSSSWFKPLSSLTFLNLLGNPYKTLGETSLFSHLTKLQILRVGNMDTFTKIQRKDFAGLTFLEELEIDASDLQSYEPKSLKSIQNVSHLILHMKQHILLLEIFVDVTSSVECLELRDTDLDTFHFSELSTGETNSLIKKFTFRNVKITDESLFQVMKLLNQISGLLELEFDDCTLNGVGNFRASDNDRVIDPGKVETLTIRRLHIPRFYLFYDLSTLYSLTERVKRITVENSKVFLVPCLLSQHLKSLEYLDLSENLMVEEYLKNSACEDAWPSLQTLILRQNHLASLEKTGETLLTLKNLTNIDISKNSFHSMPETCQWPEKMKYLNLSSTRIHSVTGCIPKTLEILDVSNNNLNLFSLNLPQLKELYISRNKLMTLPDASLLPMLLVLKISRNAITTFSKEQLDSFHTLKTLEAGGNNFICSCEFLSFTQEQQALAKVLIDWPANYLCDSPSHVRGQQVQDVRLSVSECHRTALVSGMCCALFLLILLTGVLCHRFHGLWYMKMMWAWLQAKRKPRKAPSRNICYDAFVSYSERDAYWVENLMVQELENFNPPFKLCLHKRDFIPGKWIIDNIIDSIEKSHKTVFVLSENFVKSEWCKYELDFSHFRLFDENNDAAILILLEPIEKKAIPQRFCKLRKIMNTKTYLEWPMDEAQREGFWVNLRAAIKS
Experimental: Then, Strep-tagged AmTARS, AmTARS having deletions of two functional site (AmTARSΔ1Δ2), and FLAG-tagged TLR2 were transduced into human-derived HEK 293T cells through PEI, and thereafter, the cells were lysed using a lysis buffer containing 50 mM Tris-HCl (pH 7.5), 100 mM NaCl, 1% NP-40, 1 mM EDTA, 0.25% Na-deoxycholate, and a protease inhibitor cocktail. The cell lysates each were incubated with Strep Tactin beads and washed with a buffer containing 137 mM NaCl, 2.7 mM KCl, 10 mM Na2HPO4, 1.8 mM KH2PO4, and 1 mM EDTA, and proteins attached to the beads were eluted and analyzed by immunoblotting.
In addition, His-tagged AmTARS and FLAG-tagged protein were mixed at a ratio of 1:2, incubated with Ni-NTA beads, and then washed with a buffer containing 50 mM Tris-HCl (pH 8.0), 300 mM NaCl, 30 mM imidazole, and 1% NP-40, and the proteins attached to the beads were eluted and identified on SDS-PAGE gel.

[3] = test system: macrophage-depleted colitis mice; test: DSS-induced colitis in macrophage-depleted (Clodrosome) mice; assay type: in vivo, mouse
Experimental: To further validate the macrophage-dependent function of AmTARS in improving colitis, we investigated the anti-inflammatory effects of AmTARS in macrophage-depleted colitis mice.
A macrophage-deficient mice were prepared by administration of Clodrosome (administered at a concentration of 200 μL/animal to the abdominal cavity of mice a total of three times on Days 1, 5, and 8), and then the anti-inflammatory efficacy experiment was conducted by way of the same method as in Example 5. Normal mice injected with Encapsome were used as a control.

[4] = test system: BMDMs; test: Global gene expression profiling (RNA sequencing) of BMDMs; assay type: cell-based, mouse; conditions: GSEA (Enrichr)
Experimental: (A-E) Global gene expression analysis. Total mRNA from BMDMs treated with either AmTARS (0.5 μM) or Pam3 (10 ng ml-1) for 1 or 3 h was isolated and analyzed by RNA sequencing (A). Principle components analysis (PCA) of the gene expression profiles for each sample (B). Hierarchical clustering of gene expression profiles from each sample identified cluster 3 and 4 (C). Gene set enrichment analysis (GSEA) of clusters 3 and 4 with respect to terms related to inflammation (D). […] (F) Overview of the experimental procedures for zebrafish. The yolk of Tg (NFκB:EGFP) transgenic zebrafish larvae (3 dpf) was injected with PBS or AmTARS. Injected larvae were treated at 3 and 5 dpf with 0.5% DSS for 24 h, with a washing period with fresh water for 24 h in between. Sample collection and analysis of Tg (NFκB:EGFP)-based EGFP intensity were conducted at 6 dpf. (G) Representative confocal images showing NF-κB signaling in the mid-distal intestines of PBS- or AmTARS-injected larvae with or without DSS treatment. White dashed lines denote the boundaries of the intestines (based on merged DIC bright field images). (H) Bar graph comparing the fluorescence intensity of the mid-distal intestines of PBS- or AmTARS-injected larvae treated (or not) with DSS (n=32 per PBS group and n=35 per DSS group). (I) Schematic model of the role of AmTARS in maintaining immune homeostasis via TLR2-mediated anti-inflammatory signaling pathways. Data shown in (A-C) are representative and repeated twice. Data shown in (H) are representative of three independent experiments, each similar results (mean±SEM). P-values were calculated by unpaired and two-tailed Student's t-test.
We next performed global gene expression profiling of BMDMs treated with AmTARS or Pam3 for 1 or 3 h (FIG. 32A). […] Subsets of genes showing different expression patterns between AmTARS and Pam3 were classified into six clusters by hierarchical clustering analysis (FIGS. 33A and 33B). The gene expression pattern at 3 h was particularly different for clusters 3 and 4 (FIGS. 32C, 33A, and 33B). […]

B1: Akkermansia muciniphila-derived threonyl-tRNA synthetase (TARS) (protein)
chain: MSEHKERKTLEERQQMSDLERLRHSCAHVLATAICRLWPDAQLAGGPAVDNGFYYDVELDHRISTEDFERIEEEMKKVVKENQVFQKEVISRADAMKMAESGELGALGPRSEPSRFKIDLLNDIPEDEEISLYRNGDFTDLCAGPHVGRTGNCKAFKIMSVASAFYKGDKNRPMLQRIYGTCFPNRTQLDEHLERLEEARRRDHRKLGRELGLFCIDESVGQGLILWKPKGALIRRSLQDFITEELDKLGYSQVYTPNIGKLDLYRTSGHFPYYQESQYAPIPERDAMEKLSQEGASCAELFNGLATGTIEGYMLKPMNCPHHIKIYANDAHSYRDLPVRLAEFGTVYRWEQSGELGGMTRVRGFTQDDAHIFCTPDQLAGEIRQCLGIVKTIFGTLGMTDYRVRLSMRDPESDKYVGSPENWDKAEQALREAAEWLGADYSEEAGEAAFYGPKIDFIVRDAIGREWQLGTVQVDYNLPERFDLHYTGADNKPHRPVMVHRAPFGSMERFTGLLIEHFEGKFPTWLSPEQVRVLPISDKVTDVAAAHRTALAARGVRVTVDETPDKIGAKIRNARLDRVPYMLVLGQREAEDGTVSVRHRDKGDLGAMPFEQFADLVAREIAERHISPVI
modifications: Akkermansia muciniphila TARS
M2 macrophage polarization of peritoneal macrophages ([1]; TLR2-KO mice, non-inflammatory conditions): did not cause M2 macrophage polarization
M2 macrophages in PECs isolated from TLR2-KO mice (FIG. 28K) ([1]; TLR2-KO): no M2 macrophages were observed
interaction with TLR2 among candidates tested (pull-down) ([2]; HEK 293T cells, Strep-AmTARS and TLR2-FLAG): interacted only with TLR2
direct interaction with TLR2 (in vitro pull-down) ([2]; purified TLR2-FLAG and His-tagged proteins, Ni-NTA): interacts directly with TLR2 via the U2-containing catalytic domain (CD)
colitis-induced body weight loss [3]: no effect
damage score [3]: no effect
disease activity score [3]: no effect
disruption of the epithelial lining [3]: no effect
numbers of IL-10-positive macrophages [3]: did not affect
numbers of inflammatory monocytes [3]: did not affect
shortening of the intestine [3]: no effect
transcription factors associated with up-regulated genes [4]: up-regulation of the anti-inflammation-related transcription factor CREB
